Assay results reported in patent CN114316037A.

Substrate: O型口蹄疫病毒灭活抗原 (Foot-and-mouth disease virus, serotype O (strain not stated))

B1: 单克隆抗体m19 (O型口蹄疫病毒结构蛋白的单克隆抗体m19) (antibody, V domains shown)
VH: QVQLQQPGSELVRPGASVNLSCKASGYTFPSYWMHWVKQRPGQGLEWIGNIFPDGGFTNYDENFKSRATLTVDTSSSTAYMQLSSLTSEDSAVYYCTTIYDYVVGVGAMDYWGQGTSVTVSS
VL: DIVMTQSPAIMSASPGEKVTITCSASSSISYMYWFQQKTGTSPKLWIYKTSDLASGVPARFSGSGSGTSYSLTISRMEAEDAATYYCQQRNSYTFGGGTKLELK
最佳使用浓度 (concentration giving OD450 of 1.6): 7 µg/mL
